Results reported in the supplement of paper PMC9112550, “Optimization of the antimicrobial peptide Bac7 by deep mutational scanning” (BMC Biology, 2022).

Tested on: Escherichia coli TOP10
Assay: shrunken log2 fold change of peptide-encoding DNA abundance (4.5 h post-induction vs induction); higher = less antimicrobial activity (less host growth inhibition)
Conditions: time post-induction: 4.5 h; library: site-saturation at positions 5, 18, 19, 20
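Note: peptides expressed intracellularly from a pBAD plasmid library in pooled LB shake-flask culture, induced with 0.3% L-arabinose, DNA abundance read by NGS, three biological replicates, DESeq2 with apeglm shrinkage.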

Row | Sequence | shrunken log2 fold change
1 | RRIRHRPPRLPRPRPRPGCDPRP | 0.123
2 | RRIRWRPPRLPRPRPRPHAFPRP | 0.154
3 | RRIRTRPPRLPRPRPRPNTYPRP | -0.614
4 | RRIRRRPPRLPRPRPRPWIAPRP | -0.00369
5 | RRIRMRPPRLPRPRPRPGNLPRP | 0.0466
6 | RRIRHRPPRLPRPRPRPANIPRP | -0.291
7 | RRIRKRPPRLPRPRPRPSNDPRP | 0.257
8 | RRIRGRPPRLPRPRPRPFLFPRP | 0.39
9 | RRIRGRPPRLPRPRPRPIYEPRP | -0.0413
10 | RRIRTRPPRLPRPRPRPPCIPRP | 0.00685
11 | RRIRLRPPRLPRPRPRPQWSPRP | -0.0199
12 | RRIRCRPPRLPRPRPRPYTIPRP | -0.342
13 | RRIRDRPPRLPRPRPRPANMPRP | -0.229
14 | RRIRGRPPRLPRPRPRPPMTPRP | 0.895
15 | RRIRFRPPRLPRPRPRPMITPRP | -0.33
16 | RRIRTRPPRLPRPRPRPCNFPRP | -1.39
17 | RRIRPRPPRLPRPRPRPALLPRP | 0.0603
18 | RRIRHRPPRLPRPRPRPFRGPRP | -0.254
19 | RRIRIRPPRLPRPRPRPVRCPRP | 0.201
20 | RRIRWRPPRLPRPRPRPIPDPRP | -0.0879
21 | RRIRPRPPRLPRPRPRPWKVPRP | -0.0967
22 | RRIRVRPPRLPRPRPRPCCMPRP | -0.181
23 | RRIRDRPPRLPRPRPRPRDIPRP | 0.0838
24 | RRIRARPPRLPRPRPRPCHGPRP | -0.214
25 | RRIRYRPPRLPRPRPRPNPHPRP | -0.639

Row | Sequence | shrunken log2 fold change
26 | RRIRFRPPRLPRPRPRPVGNPRP | 0.294
27 | RRIRSRPPRLPRPRPRPCGCPRP | -0.00437
28 | RRIRSRPPRLPRPRPRPLKMPRP | 0.127
29 | RRIRYRPPRLPRPRPRPNSPPRP | -0.21
30 | RRIRIRPPRLPRPRPRPIHDPRP | 2.93
31 | RRIRPRPPRLPRPRPRPRRMPRP | 0.297
32 | RRIRVRPPRLPRPRPRPDFGPRP | -0.0183
33 | RRIRVRPPRLPRPRPRPNTNPRP | -0.421
34 | RRIRIRPPRLPRPRPRPMPSPRP | -0.0227
35 | RRIRARPPRLPRPRPRPWKRPRP | 0.125
36 | RRIRDRPPRLPRPRPRPMEDPRP | -0.0288
37 | RRIRQRPPRLPRPRPRPKITPRP | -0.0282
38 | RRIRIRPPRLPRPRPRPIDEPRP | 0.0184
39 | RRIRHRPPRLPRPRPRPLKQPRP | -0.128
40 | RRIRARPPRLPRPRPRPRTDPRP | 0.465
41 | RRIRPRPPRLPRPRPRPMDRPRP | 0.247
42 | RRIRGRPPRLPRPRPRPKPYPRP | 0.332
43 | RRIRYRPPRLPRPRPRPRIPPRP | -0.353
44 | RRIRARPPRLPRPRPRPNDSPRP | -0.225
45 | RRIRCRPPRLPRPRPRPLRRPRP | 0.519
46 | RRIRNRPPRLPRPRPRPQESPRP | -0.342
47 | RRIRQRPPRLPRPRPRPMPQPRP | 0.00445
48 | RRIRYRPPRLPRPRPRPYQSPRP | 0.0169
49 | RRIRPRPPRLPRPRPRPHHHPRP | -0.532
50 | RRIRSRPPRLPRPRPRPTWAPRP | 0.518

Row | Sequence | shrunken log2 fold change
51 | RRIRERPPRLPRPRPRPMDSPRP | -0.0933
52 | RRIRDRPPRLPRPRPRPGILPRP | -0.197
53 | RRIRLRPPRLPRPRPRPTNIPRP | -0.421
54 | RRIRHRPPRLPRPRPRPYEMPRP | -0.383
55 | RRIRPRPPRLPRPRPRPCVQPRP | 0.283
56 | RRIRTRPPRLPRPRPRPKKRPRP | 0.0216
57 | RRIRNRPPRLPRPRPRPDISPRP | 0.000389
58 | RRIRFRPPRLPRPRPRPNRYPRP | -0.319
59 | RRIRTRPPRLPRPRPRPACKPRP | 0.172
60 | RRIRFRPPRLPRPRPRPPQVPRP | -0.00567
61 | RRIRKRPPRLPRPRPRPNMIPRP | 0.0348
62 | RRIRWRPPRLPRPRPRPNDRPRP | 0.174
63 | RRIRCRPPRLPRPRPRPAFQPRP | 0.0486
64 | RRIRERPPRLPRPRPRPEWTPRP | 0.0896
65 | RRIRWRPPRLPRPRPRPNWWPRP | 0.182
66 | RRIRCRPPRLPRPRPRPPKDPRP | 0.261
67 | RRIRLRPPRLPRPRPRPDVPPRP | -0.284
68 | RRIRMRPPRLPRPRPRPDKTPRP | 0.00408
69 | RRIRWRPPRLPRPRPRPMMEPRP | 0.134
70 | RRIRFRPPRLPRPRPRPMMAPRP | 0.189
71 | RRIRERPPRLPRPRPRPYCAPRP | -0.533
72 | RRIRCRPPRLPRPRPRPSCCPRP | 0.0437
73 | RRIRQRPPRLPRPRPRPCFAPRP | 0.0874
74 | RRIRIRPPRLPRPRPRPCGVPRP | -0.153
75 | RRIRCRPPRLPRPRPRPMQSPRP | -0.0765
